Laboratory results from paper PMC9585388 (Research and Practice in Thrombosis and Haemostasis, 2022).

Molecular target: T1, fibrinogen (UniProt P02671-2;P02675;P02679-2)
T1 sequence 1: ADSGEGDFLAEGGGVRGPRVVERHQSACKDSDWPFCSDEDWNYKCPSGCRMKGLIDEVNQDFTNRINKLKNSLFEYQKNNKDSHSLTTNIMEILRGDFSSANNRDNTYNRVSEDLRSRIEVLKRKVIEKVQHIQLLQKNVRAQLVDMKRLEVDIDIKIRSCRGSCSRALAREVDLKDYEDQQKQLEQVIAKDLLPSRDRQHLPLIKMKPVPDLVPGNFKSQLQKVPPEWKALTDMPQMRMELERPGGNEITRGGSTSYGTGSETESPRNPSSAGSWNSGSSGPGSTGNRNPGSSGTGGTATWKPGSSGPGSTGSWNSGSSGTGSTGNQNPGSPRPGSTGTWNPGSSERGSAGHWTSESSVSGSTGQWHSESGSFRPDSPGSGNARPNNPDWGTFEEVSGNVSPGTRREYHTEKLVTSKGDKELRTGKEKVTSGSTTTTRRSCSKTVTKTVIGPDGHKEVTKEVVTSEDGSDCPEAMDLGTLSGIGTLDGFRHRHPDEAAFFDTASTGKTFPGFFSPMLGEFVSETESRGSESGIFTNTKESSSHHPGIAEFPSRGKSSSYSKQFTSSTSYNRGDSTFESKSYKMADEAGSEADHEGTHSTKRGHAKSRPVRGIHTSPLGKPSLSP
T1 sequence 2: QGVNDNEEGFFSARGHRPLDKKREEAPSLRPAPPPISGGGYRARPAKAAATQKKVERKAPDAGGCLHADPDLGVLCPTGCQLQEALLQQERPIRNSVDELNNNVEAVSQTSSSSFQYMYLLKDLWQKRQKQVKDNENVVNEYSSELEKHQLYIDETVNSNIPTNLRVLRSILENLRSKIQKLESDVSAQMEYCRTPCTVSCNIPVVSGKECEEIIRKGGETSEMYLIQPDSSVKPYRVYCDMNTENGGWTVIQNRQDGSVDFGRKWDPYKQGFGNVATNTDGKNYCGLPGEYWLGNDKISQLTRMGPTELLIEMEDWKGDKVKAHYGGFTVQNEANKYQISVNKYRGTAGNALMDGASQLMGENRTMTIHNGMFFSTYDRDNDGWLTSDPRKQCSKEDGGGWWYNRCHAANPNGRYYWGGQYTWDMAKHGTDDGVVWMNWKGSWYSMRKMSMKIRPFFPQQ
T1 sequence 3: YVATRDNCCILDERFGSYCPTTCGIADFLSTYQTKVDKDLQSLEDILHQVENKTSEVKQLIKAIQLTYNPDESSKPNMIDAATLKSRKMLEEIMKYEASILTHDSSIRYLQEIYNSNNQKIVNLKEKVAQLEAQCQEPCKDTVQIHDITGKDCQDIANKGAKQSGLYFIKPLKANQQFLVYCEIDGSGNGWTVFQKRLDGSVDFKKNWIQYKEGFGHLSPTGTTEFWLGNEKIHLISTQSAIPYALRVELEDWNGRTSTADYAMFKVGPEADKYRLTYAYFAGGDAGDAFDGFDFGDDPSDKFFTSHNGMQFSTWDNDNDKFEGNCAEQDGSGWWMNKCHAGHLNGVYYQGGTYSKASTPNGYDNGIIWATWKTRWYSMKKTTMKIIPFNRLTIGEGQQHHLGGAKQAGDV
Test: BLI

B1: recombinant FXIII‐B (natural protein)
chain: EEKPCGFPHVENGRIAQYYYTFKSFYFPMSIDKKLSFFCLAGYTTESGRQEEQTTCTTEGWSPEPRCFKKCTKPDLSNGYISDVKLLYKIQENMRYGCASGYKTTGGKDEEVVQCLSDGWSSQPTCRKEHETCLAPELYNGNYSTTQKTFKVKDKVQYECATGYYTAGGKKTEEVECLTYGWSLTPKCTKLKCSSLRLIENGYFHPVKQTYEEGDVVQFFCHENYYLSGSDLIQCYNFGWYPESPVCEGRRNRCPPPPLPINSKIQTHSTTYRHGEIVHIECELNFEIHGSAEIRCEDGKWTEPPKCIEGQEKVACEEPPFIENGAANLHSKIYYNGDKVTYACKSGYLLHGSNEITCNRGKWTLPPECVENNENCKHPPVVMNGAVADGILASYATGSSVEYRCNEYYLLRGSKISRCEQGKWSSPPVCLEPCTVNVDYMNRNNIEMKWKYEGKVLHGDLIDFVCKQGYDLSPLTPLSELSVQCNRGEVKYPLCTRKESKGMCTSPPLIKHGVIISSTVDTYENGSSVEYRCFDHHFLEGSREAYCLDGMWTTPPLCLEPCTLSFTEMEKNNLLLKWDFDNRPHILHGEYIEFICRGDTYPAELYITGSILRMQCDRGQLKYPRCIPRQSTLSYQEPLRT
Work on B1 yielded a Kd of 46.9 nM.
